Assay results reported in article PMC7360590, “Structural basis of SALM3 dimerization and synaptic adhesion complex formation with PTPσ” (Scientific Reports, 2020).
Where a chain is given by its changes, count along the chain named. In names and notes the source's numbering stands.

T1: mouse SALM3 LRR-Ig-Fn (residues 17–510), wild type, displayed on HEK293T cells (mouse, UniProt Q80XU8 17-510)
T1 construct: SALM3 (LRFN4), mouse, extracellular LRR-Ig-Fn, residues 17-510; also called WT SALM3; SALM3-pDisplay; source: HEK293T, transfected (pDisplay), on the cell surface; not shown: HA, N-terminal, kept; transmembrane domain (from the vector pDisplay), C-terminal, kept
T1 sequence (looked up): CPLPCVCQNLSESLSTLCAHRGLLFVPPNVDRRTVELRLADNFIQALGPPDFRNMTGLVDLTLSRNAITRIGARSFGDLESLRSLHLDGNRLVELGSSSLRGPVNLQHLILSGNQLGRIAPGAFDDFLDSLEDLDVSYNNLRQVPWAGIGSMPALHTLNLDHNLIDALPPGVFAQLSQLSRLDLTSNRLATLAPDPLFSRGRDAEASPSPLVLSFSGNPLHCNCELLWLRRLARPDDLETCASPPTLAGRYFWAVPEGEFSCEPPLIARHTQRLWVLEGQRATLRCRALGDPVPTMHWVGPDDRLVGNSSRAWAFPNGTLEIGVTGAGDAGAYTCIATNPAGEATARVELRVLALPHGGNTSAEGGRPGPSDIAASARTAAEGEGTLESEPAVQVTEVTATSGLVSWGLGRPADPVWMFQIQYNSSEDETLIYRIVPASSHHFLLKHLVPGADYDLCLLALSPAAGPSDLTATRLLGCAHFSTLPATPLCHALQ

T2: PTPσ-Fc fusion protein, B0V2N1
T2 chain: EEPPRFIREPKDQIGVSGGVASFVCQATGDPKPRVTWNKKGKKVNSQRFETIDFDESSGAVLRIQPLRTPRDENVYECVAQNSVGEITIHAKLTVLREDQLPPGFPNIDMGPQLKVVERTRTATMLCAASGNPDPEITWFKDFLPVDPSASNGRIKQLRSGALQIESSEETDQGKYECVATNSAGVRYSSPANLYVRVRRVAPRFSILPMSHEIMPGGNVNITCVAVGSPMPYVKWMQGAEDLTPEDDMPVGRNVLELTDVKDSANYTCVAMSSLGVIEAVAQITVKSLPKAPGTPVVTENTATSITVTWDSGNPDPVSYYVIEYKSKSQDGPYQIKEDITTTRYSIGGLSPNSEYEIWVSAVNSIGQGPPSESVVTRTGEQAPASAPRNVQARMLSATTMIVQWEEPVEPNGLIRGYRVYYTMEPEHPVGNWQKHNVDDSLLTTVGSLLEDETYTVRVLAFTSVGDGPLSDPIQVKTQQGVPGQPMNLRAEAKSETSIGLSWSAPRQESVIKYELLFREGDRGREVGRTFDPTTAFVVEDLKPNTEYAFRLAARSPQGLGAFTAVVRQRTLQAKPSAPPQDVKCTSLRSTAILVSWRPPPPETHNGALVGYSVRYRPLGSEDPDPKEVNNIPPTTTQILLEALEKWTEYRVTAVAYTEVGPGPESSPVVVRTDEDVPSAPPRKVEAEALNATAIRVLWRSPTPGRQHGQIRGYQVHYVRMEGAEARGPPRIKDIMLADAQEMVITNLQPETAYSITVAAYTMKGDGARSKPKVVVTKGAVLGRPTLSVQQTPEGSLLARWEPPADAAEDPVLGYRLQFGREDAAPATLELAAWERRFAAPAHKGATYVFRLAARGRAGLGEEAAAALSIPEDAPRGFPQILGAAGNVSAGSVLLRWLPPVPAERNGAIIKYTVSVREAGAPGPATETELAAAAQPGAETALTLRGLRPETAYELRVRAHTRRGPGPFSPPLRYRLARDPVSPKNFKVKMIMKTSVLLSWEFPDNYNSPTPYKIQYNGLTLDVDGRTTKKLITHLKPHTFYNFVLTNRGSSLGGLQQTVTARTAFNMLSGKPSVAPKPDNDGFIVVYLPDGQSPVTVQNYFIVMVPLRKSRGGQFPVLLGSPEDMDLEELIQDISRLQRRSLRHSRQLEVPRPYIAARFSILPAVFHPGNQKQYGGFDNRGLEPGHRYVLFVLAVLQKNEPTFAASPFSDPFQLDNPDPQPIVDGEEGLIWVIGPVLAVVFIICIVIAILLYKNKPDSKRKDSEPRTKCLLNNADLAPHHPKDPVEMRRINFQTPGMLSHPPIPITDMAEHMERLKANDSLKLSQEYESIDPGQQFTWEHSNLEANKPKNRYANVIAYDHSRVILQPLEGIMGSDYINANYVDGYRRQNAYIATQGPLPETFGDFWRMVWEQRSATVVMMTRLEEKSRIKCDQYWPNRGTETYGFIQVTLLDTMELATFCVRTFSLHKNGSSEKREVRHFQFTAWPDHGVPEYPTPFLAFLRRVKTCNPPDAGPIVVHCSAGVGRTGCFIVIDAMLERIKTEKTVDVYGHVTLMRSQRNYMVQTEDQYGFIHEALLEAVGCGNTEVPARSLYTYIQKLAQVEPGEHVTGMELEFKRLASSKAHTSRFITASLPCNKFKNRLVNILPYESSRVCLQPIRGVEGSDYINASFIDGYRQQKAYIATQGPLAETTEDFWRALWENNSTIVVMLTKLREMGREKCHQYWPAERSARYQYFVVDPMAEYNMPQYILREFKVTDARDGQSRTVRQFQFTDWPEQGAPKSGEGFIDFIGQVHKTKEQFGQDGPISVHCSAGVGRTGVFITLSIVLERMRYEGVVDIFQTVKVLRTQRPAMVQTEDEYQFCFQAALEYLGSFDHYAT

B1: SALM3 LRR-Ig (residues 17–367) (domain or fragment, mouse, UniProt Q80XU8 17-367, looked up)
chain: CPLPCVCQNLSESLSTLCAHRGLLFVPPNVDRRTVELRLADNFIQALGPPDFRNMTGLVDLTLSRNAITRIGARSFGDLESLRSLHLDGNRLVELGSSSLRGPVNLQHLILSGNQLGRIAPGAFDDFLDSLEDLDVSYNNLRQVPWAGIGSMPALHTLNLDHNLIDALPPGVFAQLSQLSRLDLTSNRLATLAPDPLFSRGRDAEASPSPLVLSFSGNPLHCNCELLWLRRLARPDDLETCASPPTLAGRYFWAVPEGEFSCEPPLIARHTQRLWVLEGQRATLRCRALGDPVPTMHWVGPDDRLVGNSSRAWAFPNGTLEIGVTGAGDAGAYTCIATNPAGEATARVELR
notes: SALM3 (LRFN4), mouse, LRR and Ig domains, residues 17-367; also called SALM3 LRR-Ig construct; source: purified
B2: PTPσ-Fc fusion protein (Fc fusion)
chain: PRFIREPKDQIGVSGGVASFVCQATGDPKPRVTWNKKGKKVNSQRFETIDFDESSGAVLRIQPLRTPRDENVYECVAQNSVGEITIHAKLTVLREDQLPPGFPNIDMGPQLKVVERTRTATMLCAASGNPDPEITWFKDFLPVDPSASNGRIKQLRSGALQIESSEETDQGKYECVATNSAGVRYSSPANLYVRVRRVAPRFSILPMSHEIMPGGNVNITCVAVGSPMPYVKWMQGAEDLTPEDDMPVGRNVLELTDVKDSANYTCVAMSSLGVIEAVAQITVKSLPKAPGTPVV
B3: Mouse SALM3 LRR (residues 17–284) (domain or fragment, UniProt Q80XU8 17-284, looked up)
chain: CPLPCVCQNLSESLSTLCAHRGLLFVPPNVDRRTVELRLADNFIQALGPPDFRNMTGLVDLTLSRNAITRIGARSFGDLESLRSLHLDGNRLVELGSSSLRGPVNLQHLILSGNQLGRIAPGAFDDFLDSLEDLDVSYNNLRQVPWAGIGSMPALHTLNLDHNLIDALPPGVFAQLSQLSRLDLTSNRLATLAPDPLFSRGRDAEASPSPLVLSFSGNPLHCNCELLWLRRLARPDDLETCASPPTLAGRYFWAVPEGEFSCEPPLIA
modifications: N-glycan at Asn25 (partly visible in one monomer)
notes: SALM3 (LRFN4), mouse, LRR domain, residues 17-284; residues of the Prescission site may remain at the C-terminus after cleavage; also called SALM3 LRR domain; SALM3 LRR construct; not shown: Fc, C-terminal, cleaved
B4: mouse SALM3 LRR-Ig-Fn (residues 17–510), wild type, displayed on HEK293T cells, Q80XU8 L282R; R285A (protein)
chain: T1 sequence (looked up) with L266R, R269A
B5: mouse SALM3 LRR-Ig-Fn (residues 17–510), wild type, displayed on HEK293T cells, Q80XU8 R285A; L305A (protein)
chain: T1 sequence (looked up) with R269A, L289A
B6: mouse SALM3 LRR-Ig-Fn (residues 17–510), wild type, displayed on HEK293T cells, Q80XU8 R107S; Q131A (protein)
chain: T1 sequence (looked up) with R91S, Q115A
B7: mouse SALM3 LRR-Ig-Fn (residues 17–510), wild type, displayed on HEK293T cells, Q80XU8 L321A; H313A (protein)
chain: T1 sequence (looked up) with H297A, L305A
B8: mouse SALM3 LRR-Ig-Fn (residues 17–510), wild type, displayed on HEK293T cells, Q80XU8 R247A (protein)
chain: T1 sequence (looked up) with R231A
B9: mouse PTPσ Ig1-3-meB+ (residues 33–331) (domain or fragment, UniProt B0V2N1 33-331, looked up)
chain: PRFIREPKDQIGVSGGVASFVCQATGDPKPRVTWNKKGKKVNSQRFETIDFDESSGAVLRIQPLRTPRDENVYECVAQNSVGEITIHAKLTVLREDQLPPGFPNIDMGPQLKVVERTRTATMLCAASGNPDPEITWFKDFLPVDPSASNGRIKQLRSGALQIESSEETDQGKYECVATNSAGVRYSSPANLYVRVRRVAPRFSILPMSHEIMPGGNVNITCVAVGSPMPYVKWMQGAEDLTPEDDMPVGRNVLELTDVKDSANYTCVAMSSLGVIEAVAQITVKSLPKAPGTPVVTENT
notes: Receptor protein tyrosine phosphatase sigma (PTPσ), mouse, Ig1-Ig3 domains, splice form with mini-exon B (meB+), residues 33-331; The meB+ splice form is meant; also called PTPσ_(Ig1-Ig3); PTPσ Ig1-Ig3; source: purified

Assays:
[1] = molecular target: purified SALM3 Thr354Arg-Glu359Ala mutant protein (mouse); test: not stated; oligomeric state in solution of purified SALM3 double mutants against the wild type (Supplementary Fig. S8)
[2] = molecular target: purified SALM3 Leu282Arg-Arg285Ala mutant protein (mouse); test: as above
[3] = molecular target: the molecule itself; test: SEC-MALS; SEC–MALLS; Superdex 75 10/300, 0.5 ml/min, 20 mM Tris pH 7.4, 150 mM NaCl; 100 µL injected at 1.5 mg/ml (conditions told for the LRR construct)
[4] = molecular target: T1, mouse SALM3 LRR-Ig-Fn (residues …); test: in-cell Western (cell-based binding assay); apparent; concentration series of soluble PTPσ-Fc (1–250 nM) on SALM3-transfected HEK293T cells in 96-well plates, EGB buffer with 1% BSA, overnight at 4 °C; detected with anti-human IgG IRDye 800CW; settings: one partner purified
[5] = molecular target: T2, PTPσ-Fc fusion protein, B0V2N1; test: in-cell western cell binding assay; settings: chain shown with the change; 150 nM PTPσ-Fc; SALM3 expressed on the surface of HEK293T cells; parent: est. 49000; read off a plot
[6] = molecular target: B1; test: SEC-SAXS; SALM3 LRR-Ig (60 µM) and PTPσ (80 µM) mixed, 1 h at 4 °C; Superdex 200 PC 3.2/30, 30 mM Tris HCl pH 7.5, 150 mM NaCl, 4 °C; rigid body (CORAL) and ab initio (DAMMIN) modelling; settings: both partners purified

purified SALM3 Thr354Arg-Glu359Ala mutant protein (domain or fragment)
stoichiometry N [1]: 2

purified SALM3 Leu282Arg-Arg285Ala mutant protein (domain or fragment)
stoichiometry N [2]: 2

B1
stoichiometry N [3]: 2

B2
Kd [4]: 22.3 ± 5 nM

B3
stoichiometry N [3]: 2

B4
response [5]: 2500

B5
response [5]: 4000

B6
response [5]: 2800

B7
response [5]: 2800

B8
response [5]: 2500

B9
stoichiometry N [6]: 1 PTPσ per SALM3 (2:2 complex)
